According to patent US20160109459A1, “Compositions And Methods For Heparan Sulfate As A Biomarker For Transplant Rejection” (Duke University, priority 2012, published 2016):

Molecular target: T1, human TLR4 (Homo sapiens, UniProt O00206)
T1 construct: expressed in transfected cells; host or cells: HEK 293 (gift from Dr. Michael Fessler, NIEHS)
Experiment: IL-8 production by ELISA in HEK TLR4-MD2-CD14 cells
Type: cell-based
Details: HS pre-treated with heparanase
Description: HEK cell lines stably expressing CD14 and MD2 alone (HEK MD2-CD14), or co-expressed with human TLR2 (HEK TLR2-MD2-CD14) or human TLR4 (HEK TLR4-MD2-CD14) were transfected with a plasmid encoding firefly luciferase (F) under control of the NF-κB promoter along with a plasmid expressing Renilla luciferase (R) under control of the thymidine kinase promoter as a transfection control. Cell lines were cultured for 6 hours with media alone, LPS (100 ng/mL), HS (100 μg/mL), or Pam3CSK4 (2 μg/mL). […] FIG. 5B is a graph showing results supernatants analyzed for IL-8 production by ELISA. […] Experiments were performed in triplicate or quadruplicate. Results are representative of two to three independent experiments.
HEK 293 cell lines co-expressing human CD14, MD2 and TLR4 or TLR2 were a kind gift from Dr. Michael Fessler (NIEHS, Research Triangle Park, N.C., USA). […]
Thus, to determine whether if TLR4 was sufficient for HS activity, the ability of HS to activate human epithelial kidney (HEK) cell lines stably transfected to express human TLR4 or human TLR2 in addition to the co-receptors CD14 and MD2 was tested. […] The ratio of luminescence produced by firefly luciferase to Renilla luciferase (F/R) was then measured in response to media alone, LPS, HS, and Pam3CSK4. The production of IL-8, which is downstream of NF-κB activation, by ELISA was also measured. […]

T1 sequence (O00206 24-839): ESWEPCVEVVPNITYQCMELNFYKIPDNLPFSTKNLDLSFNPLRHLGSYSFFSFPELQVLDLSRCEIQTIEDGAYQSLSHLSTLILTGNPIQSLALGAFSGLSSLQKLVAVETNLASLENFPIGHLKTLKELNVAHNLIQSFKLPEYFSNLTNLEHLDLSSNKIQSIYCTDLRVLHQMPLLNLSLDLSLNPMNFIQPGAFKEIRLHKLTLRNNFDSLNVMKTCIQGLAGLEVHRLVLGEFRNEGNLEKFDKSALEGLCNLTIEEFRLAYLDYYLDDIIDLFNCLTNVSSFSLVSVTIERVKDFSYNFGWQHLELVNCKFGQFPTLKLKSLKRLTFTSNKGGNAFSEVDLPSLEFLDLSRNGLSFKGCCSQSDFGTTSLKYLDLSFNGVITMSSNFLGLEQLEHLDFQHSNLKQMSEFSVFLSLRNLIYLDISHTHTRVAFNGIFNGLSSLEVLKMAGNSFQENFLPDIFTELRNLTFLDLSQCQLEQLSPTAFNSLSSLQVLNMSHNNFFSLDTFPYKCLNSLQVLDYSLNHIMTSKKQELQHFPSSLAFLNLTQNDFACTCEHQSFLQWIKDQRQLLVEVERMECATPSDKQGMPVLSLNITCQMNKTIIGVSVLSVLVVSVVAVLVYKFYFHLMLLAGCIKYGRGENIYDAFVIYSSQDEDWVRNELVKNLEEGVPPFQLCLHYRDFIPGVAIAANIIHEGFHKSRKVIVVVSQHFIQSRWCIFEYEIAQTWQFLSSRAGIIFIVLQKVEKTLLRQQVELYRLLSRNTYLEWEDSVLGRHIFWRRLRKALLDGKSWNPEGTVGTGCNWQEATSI
T1 sequence (Q9Y6Y9 17-160 partner limits assumed): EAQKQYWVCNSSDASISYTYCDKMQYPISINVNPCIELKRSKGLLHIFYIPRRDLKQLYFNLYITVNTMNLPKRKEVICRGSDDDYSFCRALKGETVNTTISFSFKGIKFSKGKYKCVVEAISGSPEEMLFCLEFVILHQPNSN

effect of pre-treatment on HS stimulation of IL-8 expression: significantly reduced
B1: Heparanase: heparinase III from Flavobacterium heparinum (Sigma), enzyme that degrades heparan sulfate (protein, UniProt Q59289 25-659, looked up)
Heparin-sulfate lyase: QSSSITRKDFDHINLEYSGLEKVNKAVAAGNYDDAAKALLAYYREKSKAREPDFSNAEKPADIRQPIDKVTREMADKALVHQFQPHKGYGYFDYGKDINWQMWPVKDNEVRWQLHRVKWWQAMALVYHATGDEKYAREWVYQYSDWARKNPLGLSQDNDKFVWRPLEVSDRVQSLPPTFSLFVNSPAFTPAFLMEFLNSYHQQADYLSTHYAEQGNHRLFEAQRNLFAGVSFPEFKDSPRWRQTGISVLNTEIKKQVYADGMQFELSPIYHVAAIDIFLKAYGSAKRVNLEKEFPQSYVQTVENMIMALISISLPDYNTPMFGDSWITDKNFRMAQFASWARVFPANQAIKYFATDGKQGKAPNFLSKALSNAGFYTFRSGWDKNATVMVLKASPPGEFHAQPDNGTFELFIKGRNFTPDAGVFVYSGDEAIMKLRNWYRQTRIHSTLTLDNQNMVITKARQNKWETGNNLDVLTYTNPSYPNLDHQRSVLFINKKYFLVIDRAIGEATGNLGVHWQLKEDSNPVFDKTKNRVYTTYRDGNNLMIQSLNADRTSLNEEEGKVSYVYNKELKRPAFVFEKPKKNAGTQNFVSIVYPYDGQKAPEISIRENKGNDFEKGKLNLTLTINGKQQLVLVP
